Experimental data taken from PMC3074124.

Molecular target: T1, His6-MBNL1 (human, UniProt Q9NR56-5 1-382)
T1 sequence: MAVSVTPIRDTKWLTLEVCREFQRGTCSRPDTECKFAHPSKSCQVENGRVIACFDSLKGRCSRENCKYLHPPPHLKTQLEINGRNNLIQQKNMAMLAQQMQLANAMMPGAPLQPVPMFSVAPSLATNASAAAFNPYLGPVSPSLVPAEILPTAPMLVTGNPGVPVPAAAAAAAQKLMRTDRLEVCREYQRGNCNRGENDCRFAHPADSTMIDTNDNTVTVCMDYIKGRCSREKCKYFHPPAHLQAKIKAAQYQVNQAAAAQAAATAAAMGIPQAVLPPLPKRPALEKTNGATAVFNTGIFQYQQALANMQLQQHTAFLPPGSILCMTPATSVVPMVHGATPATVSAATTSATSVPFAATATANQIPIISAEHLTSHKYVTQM
Assay: EMSA

B1: DOWN (ssRNA)
RNA: GUAUGACUCACCUGUGCGACCCCUGGUGCCUGCUCCGCGCAGGGCCGGCGGCGUGCCAGGCAGAUGCCUCGGAGAACCCAGGGGUUUCUGUGGCUUUUUGCAUGCGGCGGGCAGCUGUGCUGGAGAGCAGAUGCUUCACCAAUUCAGAAAUCCAAUGCCUUCACUCUGAAAUGAAAUCUGGGCAU
  binding result: binds
